The text below walks through data of PMC10528150.

The experiment addresses cytochrome c oxidase (ferrocytochrome c:oxygen oxidoreductase), solubilized complex.

As to “cytochrome c with substitutions K8E/E69K/K72E/K86E/K87E (from UniProt P00004 1-105) (natural protein)”, the Activity in the cytochrome c oxidase reaction, % of WT was less than 1%; the Activity, s^−1, in the cytochrome c oxidase reaction (oxygen uptake by solubilized CcO with ascorbate and TMPD, 25 °C) was less than 1 s⁻¹.
As for “cytochrome c with substitutions E69K/K72E (from UniProt P00004 1-105) (natural protein)”, the Activity in the cytochrome c oxidase reaction, % of WT turned out to be 25%; the Activity, s^−1, in the cytochrome c oxidase reaction (oxygen uptake by solubilized CcO with ascorbate and TMPD, 25 °C) was 54 s⁻¹.
